Test results from paper PMC9352680, “A comprehensive thermodynamic model for RNA binding by the Saccharomyces cerevisiae Pumilio protein PUF4”.
Changes are numbered by the printed parent chain. In names and notes the source's numbering stands.

T1: PUF4 RNA-binding domain (Saccharomyces cerevisiae, UniProt P25339 537-888)
T1 sequence: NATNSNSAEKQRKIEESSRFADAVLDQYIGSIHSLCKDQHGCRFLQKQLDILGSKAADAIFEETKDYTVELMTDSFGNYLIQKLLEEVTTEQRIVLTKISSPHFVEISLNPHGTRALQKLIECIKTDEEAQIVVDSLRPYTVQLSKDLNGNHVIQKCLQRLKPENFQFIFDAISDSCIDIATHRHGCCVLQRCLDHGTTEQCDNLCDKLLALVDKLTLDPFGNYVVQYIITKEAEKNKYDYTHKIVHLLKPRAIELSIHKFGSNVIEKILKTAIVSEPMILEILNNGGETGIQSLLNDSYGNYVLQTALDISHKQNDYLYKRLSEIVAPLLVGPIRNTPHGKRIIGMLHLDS

B1: Id_ii_S2_P5E.4_K5.3_C5.2_[C-2T]_[T-1C]_H5.3_A5.1_F5.1_T5.2_[T11C]_[A12T] (ssRNA)
RNA: UUUGAUUAAUAUGAUAUCGUUCUUUCUUCACACUUAUUACUUUCUUUCUCGAUAUCAUAUUAAUCUUU
B2: Id_ii_S2_P5E.4_K5.3_C5.2_[C-2T]_[T-1A]_H5.3_A5.1_F5.1_T5.2_[A12C] (ssRNA)
RNA: B1 RNA with C29A, C40U, U41C
B3: Id_ii_S2_P5E.4_K5.3_C5.2_[C-2T]_H5.3_A5.1_F5.1_T5.2_[T11C]_[A12G] (ssRNA)
RNA: B1 RNA with C29U, U41G
B4: Id_ii_S2_P5E.4_K5.3_C5.2_[C-2T]_[T-1C]_H5.3_A5.1_F5.1_T5.2_[T11A]_[A12T] (ssRNA)
RNA: B1 RNA with C40A
B5: Id_ii_S2_P5E.4_K5.3_C5.2_[C-2T]_[T-1C]_H5.3_A5.1_F5.1_T5.2_[T11C] (ssRNA)
RNA: B1 RNA with U41A
B6: Id_ii_S2_P5E.4_K5.3_C5.2_[C-2T]_[T-1A]_H5.3_A5.1_F5.1_T5.2_[T11A]_[A12T] (ssRNA)
RNA: B1 RNA with C29A, C40A
B7: Id_ii_S2_P5E.4_K5.3_C5.2_[C-2T]_H5.3_A5.1_F5.1_T5.2_[T11A]_[A12C] (ssRNA)
RNA: B1 RNA with C29U, C40A, U41C
B8: Id_ii_S2_P5E.4_K5.3_C5.2_[C-2T]_[T-1A]_H5.3_A5.1_F5.1_T5.2_[T11C] (ssRNA)
RNA: B1 RNA with C29A, U41A
B9: Id_ii_S2_P5E.4_K5.3_C5.2_[C-2T]_[T-1A]_H5.3_A5.1_F5.1_T5.2_[T11C]_[A12G] (ssRNA)
RNA: B1 RNA with C29A, U41G
B10: Id_ii_S2_P5E.4_K5.3_C5.2_[C-2T]_H5.3_A5.1_F5.1_T5.2 (ssRNA)
RNA: B1 RNA with C29U, C40U, U41A
B11: Id_ii_S2_P5E.4_K5.3_C5.2_[C-2T]_[T-1A]_H5.3_A5.1_F5.1_T5.2 (ssRNA)
RNA: B1 RNA with C29A, C40U, U41A
B12: Id_ii_S2_P5E.4_K5.3_C5.2_[C-2T]_H5.3_A5.1_F5.1_T5.2_[T11A]_[A12T] (ssRNA)
RNA: B1 RNA with C29U, C40A
B13: Id_ii_S2_P5E.4_K5.3_C5.2_[C-2T]_H5.3_A5.1_F5.1_T5.2_[T11G]_[A12C] (ssRNA)
RNA: B1 RNA with C29U, C40G, U41C
B14: Id_ii_S2_P5E.4_K5.3_C5.2_[C-2A]_[T-1C]_H5.3_A5.1_F5.1_T5.2_[T11C]_[A12G] (ssRNA)
RNA: B1 RNA with U28A, U41G
B15: Id_ii_S2_P5E.4_K5.3_C5.2_[C-2T]_[T-1C]_H5.3_A5.1_F5.1_T5.2 (ssRNA)
RNA: B1 RNA with C40U, U41A
B16: Id_ii_S2_P5E.4_K5.3_C5.2_[C-2A]_[T-1C]_H5.3_A5.1_F5.1_T5.2_[T11C]_[A12C] (ssRNA)
RNA: B1 RNA with U28A, U41C
B17: Id_ii_S2_P5E.4_K5.3_C5.2_[C-2T]_H5.3_A5.1_F5.1_T5.2_[T11C]_[A12C] (ssRNA)
RNA: B1 RNA with C29U, U41C
B18: Id_ii_S2_P5E.4_K5.3_C5.2_[C-2T]_H5.3_A5.1_F5.1_T5.2_[A12C] (ssRNA)
RNA: B1 RNA with C29U, C40U, U41C
B19: Id_ii_S2_P5E.4_K5.3_C5.2_[C-2T]_H5.3_A5.1_F5.1_T5.2_[A12T] (ssRNA)
RNA: B1 RNA with C29U, C40U
B20: Id_ii_S2_P5E.4_K5.3_C5.2_[C-2T]_[T-1C]_H5.3_A5.1_F5.1_T5.2_[A12C] (ssRNA)
RNA: B1 RNA with C40U, U41C
B21: Id_ii_S2_P5E.4_K5.3_C5.2_[C-2T]_[T-1A]_H5.3_A5.1_F5.1_T5.2_[T11A]_[A12C] (ssRNA)
RNA: B1 RNA with C29A, C40A, U41C
B22: Id_ii_S2_P5E.4_K5.3_C5.2_[C-2A]_[T-1C]_H5.3_A5.1_F5.1_T5.2_[T11G]_[A12C] (ssRNA)
RNA: B1 RNA with U28A, C40G, U41C
B23: Id_ii_S2_P5E.4_K5.3_C5.2_[C-2T]_H5.3_A5.1_F5.1_T5.2_[T11C]_[A12T] (ssRNA)
RNA: B1 RNA with C29U

Molecular target: T1, PUF4 RNA-binding domain
Test: Mg; RNA-MaP; 20 mM Na-HEPES pH 7.4, 30 mM KOAc, 0.75 mM MgCl2, 0.1% Tween-20, 5% glycerol, 0.1 mg/mL BSA, 2 mM DTT; 25 C; 0.0125-409.6 nM protein
Details: tags: N-His6-TEV cleaved; C-SNAP kept, Cy3B-labelled; label: tethered on chip by stalled RNA polymerase

Binder	Kd [nM]
UCUCUUUGUAAUAUAAUCUCUU (ssRNA) [Ib_S1_P5E.1_K5.1_C5.1_H5.1_A5.1_[T5A]_F5.1_[T9A]_T5.1]	3.3
UCUCUUUGUAAUAUCAUCUCUU (ssRNA) [Ic_S1_P5E.1_K5.1_C5.1_H5.1_A5.1_[T5A]_F5.1_[T9C]_T5.1]	26.1
B1	> 2300
B2	> 2300
B3	> 2300
B4	> 2300
B5	> 2300
B6	> 2300
B7	> 2300
B8	> 2300
B9	> 2300
B10	722
B11	790
B12	> 2300
B13	> 2300
B14	> 2300
B15	751
B16	> 2300
B17	1930
B18	1890
B19	1990
B20	> 2300
B21	> 2300
B22	> 2300
B23	1530
